Assay results: the Immune Epitope Database (IEDB)

Legend:
HLA-A*02:01 = assay: IEDB peptide-MHC binding, purified MHC/direct/fluorescence; filed as Kd, often an IC50 or EC50 that approximates it; ≥ and ≤ were set here for values at or beyond the usual limits of such assays; details: source organism: Haemophilus influenzae
HLA-A*02:02 = assay: IEDB peptide-MHC binding, purified MHC/competitive/radioactivity; filed as Kd, often an IC50 or EC50 that approximates it; ≥ and ≤ were set here for values at or beyond the usual limits of such assays
HLA-A*02:03 = assay: as above
HLA-A*02:06 = assay: as above
HLA-A*03:01 [1] = assay: IEDB peptide-MHC binding, purified MHC/direct/fluorescence; filed as Kd, often an IC50 or EC50 that approximates it; ≥ and ≤ were set here for values at or beyond the usual limits of such assays
HLA-A*03:01 [2] = assay: IEDB peptide-MHC binding, purified MHC/competitive/radioactivity; filed as Kd, often an IC50 or EC50 that approximates it; ≥ and ≤ were set here for values at or beyond the usual limits of such assays; details: source organism: Vaccinia virus WR
HLA-A*11:01 = assay: as above; details: source organism: Vaccinia virus WR
HLA-A*31:01 = assay: as above; details: source organism: Vaccinia virus WR
HLA-A*33:01 = assay: as above; details: source organism: Vaccinia virus WR
HLA-A*68:01 = assay: as above; details: source organism: Vaccinia virus WR
[3] = source organism: SARS coronavirus Tor2
[4] = source organism: Dengue virus 4 Philippines/H241/1956
[5] = source organism: Vaccinia virus WR
[6] = source organism: Lassa virus Josiah
[7] = source organism: Dengue virus 3 Martinique/1243/1999
[8] = source organism: Mammarenavirus tacaribeense
[9] = source organism: Human immunodeficiency virus type 1 (CLONE 12)

Sequence | Kd (HLA-A*02:02; [5]) | Kd (HLA-A*02:03; [5]) | Kd (HLA-A*02:06; [5]) | other results
ALLGERPII | – | – | – | Kd (HLA-A*02:01): 7760 nM
ALSGVFCGV | – | – | – | Kd (HLA-A*02:02; [3]): 1.16 nM; Kd (HLA-A*02:03; [3]): 11.6 nM; Kd (HLA-A*02:06; [3]): 49.8 nM
AQPGLLSYV | – | – | – | Kd (HLA-A*02:03; source organism: Mammarenavirus guanaritoense): 5.53 nM
AVFKMSPGYV | – | – | – | Kd (HLA-A*02:03; [4]): 7.15 nM
CAVIPFDDIV | 2920 nM | 7420 nM | 184 nM | –
CLTVPNITI | 95.9 nM | 75.2 nM | 1660 nM | –
CNYSKYWYL | – | – | – | Kd (HLA-A*02:02; [6]): 3660 nM; Kd (HLA-A*02:03; [6]): 7130 nM; Kd (HLA-A*02:06; [6]): 2700 nM
DIYDAVRAFL | 1460 nM | 6950 nM | 12100 nM | –
DLKHATDYIA | 8760 nM | 2960 nM | 1050 nM | –
DLTAALRDV | – | – | – | Kd (HLA-A*02:06; source organism: Homo sapiens): ≥ 28100 nM
DTIAHINTLI | 1160 nM | 114 nM | ≥ 62200 nM | –
DTSNNIAEYI | 3330 nM | 9220 nM | ≥ 45700 nM | –
EILRNYLRL | 14000 nM | 2090 nM | 13000 nM | –
FTNSQIFNII | 143 nM | 457 nM | 1200 nM | –
GIITLYLGAV | – | – | – | Kd (HLA-A*02:03; [7]): 4.98 nM; Kd (HLA-A*02:06; [7]): 5.01 nM
GLCNYGGILI | 152 nM | 3210 nM | 5030 nM | –
HLYYFITYY | – | – | – | Kd (HLA-A*03:01 [1]; source organism: Giardia lamblia ATCC 50803): 150 nM
IAGIILLIL | 4190 nM | ≥ 52900 nM | ≥ 77100 nM | –
IALALEQYGI | 980 nM | 4920 nM | 1130 nM | –
IIRVTTELNI | 9960 nM | 8760 nM | 13700 nM | –
ILIRTGLLV | – | – | – | Kd (HLA-A*02:03; source organism: Dengue virus 2 Jamaica/1409/1983): 16.3 nM
IMKDGRVLV | – | – | – | Kd (HLA-A*02:03; source organism: Dengue virus 2 16681-PDK53): 19 nM
IMRVMANNV | 396 nM | 1260 nM | 2500 nM | –
INISGYNLSL | – | – | – | Kd (HLA-A*02:02; [8]): 179 nM; Kd (HLA-A*02:03; [8]): 1360 nM; Kd (HLA-A*02:06; [8]): 11400 nM
ITTLLNETA | 414 nM | 936 nM | 596 nM | –
IVCSKTVKNV | 10800 nM | 503 nM | 2760 nM | –
KLSMGLIAIA | – | – | – | Kd (HLA-A*02:03; [4]): 22.9 nM

Sequence | Kd (HLA-A*02:02; [5]) | Kd (HLA-A*02:03; [5]) | Kd (HLA-A*02:06; [5]) | other results
KQNHMQILK | – | – | – | Kd (HLA-A*03:01 [1]; source organism: Francisella tularensis subsp. holarctica LVS): 156 nM
KSFFWFNEV | – | – | – | Kd (HLA-A*02:02; [8]): 61.9 nM; Kd (HLA-A*02:03; [8]): 264 nM; Kd (HLA-A*02:06; [8]): 3.18 nM
KTDGAVTSPL | 61.9 nM | 400 nM | 347 nM | –
KTKISVEKI | 7600 nM | 112 nM | 10700 nM | –
LIISTDQDT | ≥ 77800 nM | ≥ 78100 nM | ≥ 77100 nM | –
LIYDDNIDSI | 121 nM | 26.1 nM | 212 nM | –
LLFNKVTLA | – | – | – | Kd (HLA-A*02:02; [3]): 0.953 nM; Kd (HLA-A*02:03; [3]): 1.06 nM; Kd (HLA-A*02:06; [3]): 9.01 nM
LMIFISSFL | 0.651 nM | 0.13 nM | 17.8 nM | –
LTNKKYRCMA | ≥ 34800 nM | 5400 nM | ≥ 69800 nM | –
LTTVFIKYV | 3650 nM | 676 nM | 130 nM | –
LVDKEDTDIV | 3700 nM | 1680 nM | ≥ 27100 nM | –
NIISYIILFI | 123 nM | 133 nM | 72 nM | –
NIKPVIVPDI | 10300 nM | 745 nM | 945 nM | –
NITTLLNET | 1300 nM | 2900 nM | 2310 nM | –
NLTQLFKYV | 320 nM | 238 nM | 657 nM | –
PANINDKQIM | ≥ 49500 nM | ≥ 43100 nM | 10900 nM | –
PLTLLIKTL | 5270 nM | 6140 nM | 8100 nM | –
QTVDFTDCRT | ≥ 30500 nM | ≥ 54300 nM | 3640 nM | –
RILQQLLFI | – | – | – | Kd (HLA-A*02:03; [9]): 543 nM; Kd (HLA-A*02:06; [9]): 21.6 nM
RLYNSLKRFT | 1060 nM | 444 nM | 7290 nM | –
RVKQWVMDTL | 3480 nM | 689 nM | ≥ 27800 nM | –
RVLIFILLTA | – | – | – | Kd (HLA-A*02:06; source organism: Dengue virus 2 Peru/IQT2913/1996): 397 nM
SAFNDDGIYI | 35.2 nM | 67.7 nM | 40.9 nM | –
SINNQLMYDI | 492 nM | 482 nM | 4830 nM | –
SLCSCICTV | – | – | – | Kd (HLA-A*02:02; [3]): 3.96 nM; Kd (HLA-A*02:03; [3]): 4.19 nM; Kd (HLA-A*02:06; [3]): 5.83 nM
SLYGRYNCK | – | – | – | Kd (HLA-A*03:01 [1]; [8]): 89 nM
SSAVVDNKLK | – | – | – | Kd (HLA-A*03:01 [2]): 289 nM; Kd (HLA-A*11:01): 37.2 nM; Kd (HLA-A*31:01): 1520 nM; Kd (HLA-A*33:01): 17500 nM; Kd (HLA-A*68:01): 1.19 nM
